B1: TG2 ΔS538: tissue transglutaminase deletion mutant lacking C-terminal amino acids from position S538 (protein, UniProt P21980 1-537, looked up, fragment)
chain: MAEELVLERCDLELETNGRDHHTADLCREKLVVRRGQPFWLTLHFEGRNYEASVDSLTFSVVTGPAPSQEAGTKARFPLRDAVEEGDWTATVVDQQDCTLSLQLTTPANAPIGLYRLSLEASTGYQGSSFVLGHFILLFNAWCPADAVYLDSEEERQEYVLTQQGFIYQGSAKFIKNIPWNFGQFEDGILDICLILLDVNPKFLKNAGRDCSRRSSPVYVGRVVSGMVNCNDDQGVLLGRWDNNYGDGVSPMSWIGSVDILRRWKNHGCQRVKYGQCWVFAAVACTVLRCLGIPTRVVTNYNSAHDQNSNLLIEYFRNEFGEIQGDKSEMIWNFHCWVESWMTRPDLQPGYEGWQALDPTPQEKSEGTYCCGPVPVRAIKEGDLSTKYDAPFVFAEVNADVVDWIQQDDGSVHKSINRSLIVGLKISTKSVGRDEREDITHTYKYPEGSSEEREAFTRANHLNKLAEKEETGMAMRIRVGQSMNMGSDFDVFAHITNNTAEEYVCRLLLCARTVSYNGILGPECGTKYLLNLNLEPF
B2: TG2 ΔE447: tissue transglutaminase deletion mutant lacking C-terminal amino acids from position E447 (protein, UniProt P21980 1-446, looked up, fragment)
chain: MAEELVLERCDLELETNGRDHHTADLCREKLVVRRGQPFWLTLHFEGRNYEASVDSLTFSVVTGPAPSQEAGTKARFPLRDAVEEGDWTATVVDQQDCTLSLQLTTPANAPIGLYRLSLEASTGYQGSSFVLGHFILLFNAWCPADAVYLDSEEERQEYVLTQQGFIYQGSAKFIKNIPWNFGQFEDGILDICLILLDVNPKFLKNAGRDCSRRSSPVYVGRVVSGMVNCNDDQGVLLGRWDNNYGDGVSPMSWIGSVDILRRWKNHGCQRVKYGQCWVFAAVACTVLRCLGIPTRVVTNYNSAHDQNSNLLIEYFRNEFGEIQGDKSEMIWNFHCWVESWMTRPDLQPGYEGWQALDPTPQEKSEGTYCCGPVPVRAIKEGDLSTKYDAPFVFAEVNADVVDWIQQDDGSVHKSINRSLIVGLKISTKSVGRDEREDITHTYKYP
B3: open TG2: recombinant TG2 stabilized in its open form by reaction with the inhibitor Z-PIMen(OEt)-QPL-OMe (protein, UniProt P21980 2-687, looked up)
Protein-glutamine …: AEELVLERCDLELETNGRDHHTADLCREKLVVRRGQPFWLTLHFEGRNYEASVDSLTFSVVTGPAPSQEAGTKARFPLRDAVEEGDWTATVVDQQDCTLSLQLTTPANAPIGLYRLSLEASTGYQGSSFVLGHFILLFNAWCPADAVYLDSEEERQEYVLTQQGFIYQGSAKFIKNIPWNFGQFEDGILDICLILLDVNPKFLKNAGRDCSRRSSPVYVGRVVSGMVNCNDDQGVLLGRWDNNYGDGVSPMSWIGSVDILRRWKNHGCQRVKYGQCWVFAAVACTVLRCLGIPTRVVTNYNSAHDQNSNLLIEYFRNEFGEIQGDKSEMIWNFHCWVESWMTRPDLQPGYEGWQALDPTPQEKSEGTYCCGPVPVRAIKEGDLSTKYDAPFVFAEVNADVVDWIQQDDGSVHKSINRSLIVGLKISTKSVGRDEREDITHTYKYPEGSSEEREAFTRANHLNKLAEKEETGMAMRIRVGQSMNMGSDFDVFAHITNNTAEEYVCRLLLCARTVSYNGILGPECGTKYLLNLNLEPFSEKSVPLCILYEKYRDCLTESNLIKVRALLVEPVINSYLLAERDLYLENPEIKIRILGEPKQKRKLVAEVSLQNPLPVALEGCTFTVEGAGLTEEQKTVEIPDPVEAGEEVKVRMDLLPLHMGLHKLVVNFESDKLKAVKGFRNVIIGPA
modifications: Z-PIMen(OEt)-QPL-OMe inhibitor adduct

Experiments:
[1] = enzymatic activity of truncated tissue transglutaminases; assay type: biochemical
From the text: Tissue transglutaminase fragments were produced recombinantly in E. coli as deletion mutants lacking C-terminal amino acids from positions S538 and E447 according to example 1 an methods known to persons skilled in the art. The resulting truncated tissue transglutaminases still were enzymatically active, although the activity was reduced to 5 and 1% respectively compared to the full length enzyme. Transglutaminase 6 fragment lacking the C-terminal amino acids from position G594 was produced accordingly.

[2] = tested on: Patient F (celiac disease); assay: hyposensitisation of a celiac disease patient with open TG2; assay type: in vivo, human; conditions: subcutaneous, 6 months weekly rising doses, then monthly 1.5 years; then 1 g gluten per day
From the text: Patient F suffered from celiac disease and has been on gluten free diet for 8 years. […] Patient F has been injected subcutaneously a solution containing open TG2, which has been produced according to example 1. Injections have been repeated weekly over a period of six months; the doses have been increased over this period in order to reach the maintenance dose. The application has then been repeated applying the maintenance dose once a month for 1.5 years. Patient F was kept on a strict gluten free diet for this whole hyposensitisation therapy period. Later-on the patient started to consume minor amounts (1 g per day) of gluten in addition to the gluten free diet.

Molecule	enzymatic activity compared to the full length enzyme [1]	celiac disease symptoms after hyposensitisation therapy [2]
B1	5%	
B2	1%	
B3		No celiac disease symptoms could be measured clinically or by biopsy or serology

From US8808980B2, “Stabilized open form transglutaminase as a diagnostic indictor for autoimmune diseases” (Zedira GmbH, priority 2009, dated 2014)
